Test results reported in patent publication US20160152728A1 (AFFEMED, published 2016).
Positions count from the first letter of the chain named.

B1: EGFRvIII/CD3 TandAb with EGFRvIII binding domain ABC469, domain order (i) VL^CD3(v64)-VH^EGFRvIII-VL^EGFRvIII-VH^CD3(v64) (bispecific antibody, part only; not given: CD3 v64 domain and linkers, not shown: small tags and cut ends)
chain, part: EVQLVQSGAEVKKPGESLKISCKGSGYSFNSYWIGWVRQMPGKGLEWMGIIYPGDSDTRYSPSFQGQVTISADKSISTAYLQWSSLKASDTAMYYCARLGSSWTNDAFDIWGQGTLVTVSSLTQPPSYESVSVSPGQTARITCSGDTLPKQYAYWYQQKPGQAPVLVIYKDSERPSGIPERFSGSSSGTTVTLTISGVQAEDEADYYCQSVDVSGTYVVFGGGTKLTVL
B2: EGFRvIII/CD3 TandAb with EGFRvIII binding domain ABC469, domain order (iv) VH^EGFRvIII-VL^CD3-VH^CD3-VL^EGFRvIII (bispecific antibody, part only; not given: CD3 domain and linkers, not shown: small tags and cut ends)
chain, part: B1 chain, part
B3: EGFRvIII/CD3 TandAb with EGFRvIII binding domain ABC471, domain order (i) VL^CD3(v64)-VH^EGFRvIII-VL^EGFRvIII-VH^CD3(v64) (bispecific antibody, part only; not given: CD3 v64 domain and linkers, not shown: small tags and cut ends)
chain, part: EVQLVQSGAEVKKPGESLKISCKGSGYSFNSYWIGWVRQMPGKGLEWMGIIYPGDSANRYSPSFQGQVTISADKSISTAYLQWSSLKASDTAMYYCARLGSSWTNDAFDIWGQGTLVTVSSSYELTQPPSVSVSPGQTARITCSGDYLPKQYAYWYQQKPGQAPVLVIYKDTERPSGIPERFSGSSSGTTVTLTISGVQAEDEADYYCQSVDSSHPSVVFGGGTKLTVL
B4: EGFRvIII/CD3 TandAb with EGFRvIII binding domain ABC470, domain order (iv) VH^EGFRvIII-VL^CD3-VH^CD3-VL^EGFRvIII (bispecific antibody, part only; not given: CD3 domain and linkers, not shown: small tags and cut ends)
chain, part: B3 chain, part with A57D, N58T, Y147A, P149D, T172S, H215E, P216T, S217Y
B5: EGFRvIII/CD3 TandAb with EGFRvIII binding domain ABC470, domain order (i) VL^CD3(v64)-VH^EGFRvIII-VL^EGFRvIII-VH^CD3(v64) (bispecific antibody, part only; not given: CD3 v64 domain and linkers, not shown: small tags and cut ends)
chain, part: B3 chain, part with A57D, N58T, Y147A, P149D, T172S, H215E, P216T, S217Y
B6: EGFRvIII/CD3 TandAb with EGFRvIII binding domain ABC472, domain order (i) VL^CD3(v64)-VH^EGFRvIII-VL^EGFRvIII-VH^CD3(v64) (bispecific antibody, part only; not given: CD3 v64 domain and linkers, not shown: small tags and cut ends)
chain, part: B3 chain, part with N30G, S31Y, A57H, N58T, Y147A, H215G, P216T, S217Q
B7: EGFRvIII/CD3 TandAb with EGFRvIII binding domain ABC471, domain order (iv) VH^EGFRvIII-VL^CD3-VH^CD3-VL^EGFRvIII (bispecific antibody, part only; not given: CD3 domain and linkers, not shown: small tags and cut ends)
chain, part: B3 chain, part
B8: TandAb EGFRvIII(ABC478)/CD3(v64) (bispecific antibody)
tandem diabody polypeptide (homodimer): DIQMTQSPSSLSASVGDRVTITCRSSTGAVTTSNYANWVQQKPGKAPKALIGGTNKRAPGVPSRFSGSLIGDKATLTISSLQPEDFATYYCALWYSNLWVFGQGTKVEIKEVQLVQSGAEVKKPGESLKISCKGSGYSFNSYWIGWVRQMPGKGLEWMGIIYPGDEDTRYSPSFQGQVTISADKSISTAYLQWSSLKASDTAMYYCARLGSSWTNDAFDIWGQGTLVTVSSSYELTQPPSVSVSPGQTARITCSGDALPKQYAYWYQQKPGQAPVLVIYKDTERPSGIPERFSGSSSGTTVTLTISGVQAEDEADYYCQSVDPSGTYVVFGGGTKLTVLEVQLVESGGGLVQPGGSLRLSCAASGFTFSTYAMNWVRQAPGKGLEWVGRIRSKYNNYATYYADSVKDRFTISRDDSKNSLYLQMNSLKTEDTAVYYCARHGNFGNSYVSYFAYWGQGTLVTVSS
notes: also called domain order (i) VL^CD3-VH^EGFRvIII-VL^EGFRvIII-VH^CD3
B9: TandAb EGFRvIII(ABC479)/CD3(v64) (bispecific antibody)
tandem diabody polypeptide (homodimer): DIQMTQSPSSLSASVGDRVTITCRSSTGAVTTSNYANWVQQKPGKAPKALIGGTNKRAPGVPSRFSGSLIGDKATLTISSLQPEDFATYYCALWYSNLWVFGQGTKVEIKQSGAEVKKPGEVQLVESLKISCKGSGYDFSSYWIGWVRQMPGKGLEWMGIIYPGDSDTIYSPSFQGQVTISADKSISTAYLQWSSLKASDTAMYYCARLGSSWTNDAFDIWGQGTLVTVSSSYELTQPPSVSVSPGQTARITCSGAALPEQYAYWYQQKPGQAPVLVIYKDSERPSGIPERFSGSSSGTTVTLTISGVQAEDEADYYCQSVDSSGTFYVFGGGTKLTVLEVQLVESGGGLVQPGGSLRLSCAASGFTFSTYAMNWVRQAPGKGLEWVGRIRSKYNNYATYYADSVKDRFTISRDDSKNSLYLQMNSLKTEDTAVYYCARHGNFGNSYVSYFAYWGQGTLVTVSS
notes: as for B8
B10: Li3G30 scFv (parental) (scFv, V domains shown)
VH: EVQLVQSGAEVKKPGESLKISCKGSGYSFTSYWIGWVRQMPGKGLEWMGIIYPGDSDTRYSPSFQGQVTISADKSISTAYLQWSSLKASDTAMYYCARLGSSWTNDAFDIWGQGTMVTVSS
VL: SYELTQPPSVSVSPGQTARITCSGDALPKQYAYWYQQKPGQAPVLVIYKDSERPSGIPERFSGSSSGTTVTLTISGVQAEDEADYYCQSADSSGTPLIVFGTGTKLTVL
notes: One-chain scFv, His-tagged; also called parental scFv; starting clone Li3G30

target: T1, EGFRvIII expressed on cells (CHO^EGFRvIII, F98^EGFRvIII) (UniProt P00533 25-1210); assay: cell-based or functional assay
T1 construct: whole, on cells; the vIII deletion must be applied; also called deletion mutant EGFRvIII

Binder | Cytotoxic potency EC50 [nM] | cytotoxicity improvement factor relative to parental TandAb [fold]
B1 | 11 | 2.5
B2 | 6.5 | 33.3
B3 | 1.5 | 18.2
B4 | 3.8 | 56.9
B5 | 4 | 6.8
B6 | 4.2 | 6.5
B7 | 3.1 | 69.8

target: EGFRvIII-Fc fusion antigen (human, UniProt P00533 25-645); assay: ELISA on coated EGFRvIII-Fc; TandAb detected with Protein L-HRP, Abs(450nm) [EGFRvIII binding]

EC50 (read off the curve) [nM] | Binder
1 | B1
0.6 | B2
~1 | B8
~4 | B9
0.9 | B4
0.6 | B7

target: T1, EGFRvIII expressed on cells …; assay: flow cytometry on CHO^EGFRvIII cells; scFv detected with anti-His followed by FITC-conj. goat anti-mouse IgG, mean fluorescence intensity
Description: (§1) After a second washing cycle, the cells were incubated with 0.1 mL of 15 μg/mL FITC-conjugated goat anti-mouse IgG antibodies under the same conditions as before. As a control, cells were incubated with the anti-His IgG 13/45/31 followed by the FITC-conjugated goat anti-mouse IgG antibodies without scFvs. The cells were then washed again and resuspended in 0.2 mL of FACS buffer containing 2 μg/mL propidium iodide in order to exclude dead cells. The fluorescence of 1×10⁴ living cells was measured using a Beckman-Coulter FC500 MPL flow cytometer using the MXP software (Beckman-Coulter, Krefeld, Germany) or a Millipore Guava EasyCyte flow cytometer using the Incyte software (Merck Millipore, Schwalbach, Germany). Mean fluorescence intensities of the cell samples were calculated using CXP software (Beckman-Coulter, Krefeld, Germany) or Incyte software (Merck Millipore, Schwalbach, Germany).
(§2) In case of analysis with Beckman-Coulter FC500 MPL flow cytometer 0.5×10⁶ cells/staining and in case of Millipore Guava EasyCyte flow cytometer only 0.25×10⁶ cells/staining were used.

EC50 (read off the curve) [nM] | Binder
~5 | B10

target: EGFRvIII-Fc fusion antigen (human) (UniProt P00533); assay: ELISA on coated EGFRvIII-Fc; TandAb detected with Protein L-HRP, Abs(450nm) [EGFRvIII binding]

EC50 (read off the curve) [nM] | Binder
0.8 | B3
0.7 | B5
0.8 | B6

target: T1, EGFRvIII expressed on cells …; assay: flow cytometry on F98^EGFRvIII cells; scFv detected with anti-His followed by FITC-conj. goat anti-mouse IgG, mean fluorescence intensity
Description: as §1, §2

EC50 (read off the curve) [nM] | Binder
~6 | B10

target: T2, wild type EGFR expressed on cells (CHO^EGFR, F98^EGFR) (human, UniProt P00533 25-1210); assay: flow cytometry on F98^EGFR cells; scFv detected with anti-His followed by FITC-conj. goat anti-mouse IgG
T2 construct: whole, on cells; also called native EGFR; EGFRwt
Description: as §1, §2

binding result | Binder
no binding (tested: about 3300 nM) | B10

target: CD3γε recombinant antigen (UniProt P09693); assay: ELISA on coated CD3γε antigen; TandAb detected with Protein L-HRP, Abs(450nm) [CD3γε binding]
Sequence (P09693 23-116, chain 1 of 2): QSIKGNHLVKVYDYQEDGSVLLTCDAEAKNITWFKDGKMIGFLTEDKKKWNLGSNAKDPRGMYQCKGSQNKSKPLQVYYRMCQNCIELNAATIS
Sequence (P07766 23-126, chain 2 of 2, further chain): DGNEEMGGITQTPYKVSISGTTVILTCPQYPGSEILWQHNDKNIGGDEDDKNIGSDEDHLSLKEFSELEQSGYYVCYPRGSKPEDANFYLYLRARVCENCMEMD

EC50 (read off the curve) [nM] | Binder
7 | B2
